Tested on: Escherichia coli TOP10
Test: shrunken log2 fold change of peptide-encoding DNA abundance (4.5 h post-induction vs induction); higher = less antimicrobial activity (less host growth inhibition)
Settings: time post-induction: 4.5 h; library: site-saturation at positions 5, 18, 19, 20
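Note: peptides expressed intracellularly from a pBAD plasmid library in pooled LB shake-flask culture, induced with 0.3% L-arabinose, DNA abundance read by NGS, three biological replicates, DESeq2 with apeglm shrinkage.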

| Sequence | shrunken log2 fold change |
| --- | --- |
| RRIRYRPPRLPRPRPRPLRGPRP | 0.561 |
| RRIRKRPPRLPRPRPRPEAMPRP | 0.0888 |
| RRIRNRPPRLPRPRPRPMMPPRP | -0.0635 |
| RRIRARPPRLPRPRPRPNQWPRP | 0.724 |
| RRIRTRPPRLPRPRPRPRNMPRP | -0.493 |
| RRIRIRPPRLPRPRPRPCMYPRP | -0.573 |
| RRIRNRPPRLPRPRPRPLVDPRP | 0.0463 |
| RRIRGRPPRLPRPRPRPCVGPRP | 0.729 |
| RRIRERPPRLPRPRPRPIKQPRP | -0.00681 |
| RRIRTRPPRLPRPRPRPPHVPRP | 0.307 |
| RRIRMRPPRLPRPRPRPMNYPRP | -0.082 |
| RRIRLRPPRLPRPRPRPAGQPRP | -0.0451 |
| RRIRQRPPRLPRPRPRPHCWPRP | -0.0628 |
| RRIRIRPPRLPRPRPRPAQSPRP | 0.227 |
| RRIRQRPPRLPRPRPRPQHIPRP | -0.357 |
| RRIRWRPPRLPRPRPRPGTAPRP | 0.392 |
| RRIRMRPPRLPRPRPRPINAPRP | -0.0931 |
| RRIRDRPPRLPRPRPRPQIEPRP | -0.0186 |
| RRIRHRPPRLPRPRPRPCYAPRP | -0.291 |
| RRIRWRPPRLPRPRPRPCAGPRP | 0.0556 |
| RRIRYRPPRLPRPRPRPRCCPRP | -0.233 |
| RRIRTRPPRLPRPRPRPSCIPRP | -0.44 |
| RRIRQRPPRLPRPRPRPWLVPRP | -0.0624 |
| RRIRRRPPRLPRPRPRPDSEPRP | 0.036 |
| RRIRWRPPRLPRPRPRPAQYPRP | 0.122 |

| Sequence | shrunken log2 fold change |
| --- | --- |
| RRIRKRPPRLPRPRPRPQSVPRP | 0.139 |
| RRIRSRPPRLPRPRPRPPFGPRP | 0.398 |
| RRIRCRPPRLPRPRPRPSPIPRP | -0.32 |
| RRIRPRPPRLPRPRPRPIWWPRP | 0.665 |
| RRIRTRPPRLPRPRPRPATPPRP | 0.499 |
| RRIRLRPPRLPRPRPRPNMTPRP | -0.0555 |
| RRIRVRPPRLPRPRPRPWGGPRP | 0.307 |
| RRIRPRPPRLPRPRPRPNHPPRP | -0.404 |
| RRIRSRPPRLPRPRPRPRAYPRP | 0.031 |
| RRIRVRPPRLPRPRPRPSTYPRP | -0.288 |
| RRIRLRPPRLPRPRPRPHCAPRP | -0.309 |
| RRIRKRPPRLPRPRPRPPALPRP | 0.57 |
| RRIRCRPPRLPRPRPRPPYDPRP | -0.0699 |
| RRIRTRPPRLPRPRPRPAHLPRP | -0.000138 |
| RRIRDRPPRLPRPRPRPNLVPRP | -0.0615 |
| RRIRCRPPRLPRPRPRPDFNPRP | -0.242 |
| RRIRTRPPRLPRPRPRPAEMPRP | -0.253 |
| RRIRERPPRLPRPRPRPNCCPRP | -0.00112 |
| RRIRHRPPRLPRPRPRPATNPRP | 0.607 |
| RRIRDRPPRLPRPRPRPRYPPRP | -0.0457 |
| RRIRPRPPRLPRPRPRPQCSPRP | -0.0986 |
| RRIRVRPPRLPRPRPRPYREPRP | -0.3 |
| RRIRSRPPRLPRPRPRPQWRPRP | 0.11 |
| RRIRRRPPRLPRPRPRPAYWPRP | 0.135 |
| RRIRRRPPRLPRPRPRPVQHPRP | -0.0478 |

| Sequence | shrunken log2 fold change |
| --- | --- |
| RRIRARPPRLPRPRPRPIMHPRP | -0.171 |
| RRIRDRPPRLPRPRPRPCIVPRP | -0.0549 |
| RRIRERPPRLPRPRPRPFNVPRP | -0.0305 |
| RRIRQRPPRLPRPRPRPRQRPRP | 0.245 |
| RRIRIRPPRLPRPRPRPCIPPRP | -0.307 |
| RRIRTRPPRLPRPRPRPCKAPRP | -0.00146 |
| RRIRQRPPRLPRPRPRPIYAPRP | -0.222 |
| RRIRPRPPRLPRPRPRPKGDPRP | 0.022 |
| RRIRARPPRLPRPRPRPQRVPRP | -0.188 |
| RRIRTRPPRLPRPRPRPWPDPRP | -0.0269 |
| RRIRYRPPRLPRPRPRPYGKPRP | -1.27 |
| RRIRKRPPRLPRPRPRPQGVPRP | -0.0162 |
| RRIRLRPPRLPRPRPRPAVQPRP | -0.249 |
| RRIRYRPPRLPRPRPRPKWNPRP | -0.483 |
| RRIRSRPPRLPRPRPRPQEMPRP | 0.111 |
| RRIRERPPRLPRPRPRPWTKPRP | 0.0475 |
| RRIRSRPPRLPRPRPRPLWTPRP | 0.0886 |
| RRIRKRPPRLPRPRPRPLACPRP | -0.0149 |
| RRIRGRPPRLPRPRPRPTTMPRP | 0.451 |
| RRIRSRPPRLPRPRPRPNWWPRP | 0.022 |
| RRIRKRPPRLPRPRPRPPEWPRP | 1.19 |
| RRIRARPPRLPRPRPRPIVWPRP | 0.393 |
| RRIRYRPPRLPRPRPRPTSIPRP | -0.656 |
| RRIRFRPPRLPRPRPRPAGHPRP | 0.153 |
| RRIRCRPPRLPRPRPRPVFRPRP | -0.128 |

| Sequence | shrunken log2 fold change |
| --- | --- |
| RRIRNRPPRLPRPRPRPYDCPRP | -0.109 |
| RRIRVRPPRLPRPRPRPYTEPRP | -0.42 |
| RRIRARPPRLPRPRPRPVTIPRP | -0.207 |
| RRIRGRPPRLPRPRPRPAGTPRP | 0.752 |
| RRIRARPPRLPRPRPRPVMLPRP | -0.19 |
| RRIRPRPPRLPRPRPRPDPAPRP | 0.326 |
| RRIRCRPPRLPRPRPRPHKWPRP | -0.174 |
| RRIRTRPPRLPRPRPRPYHVPRP | -0.0196 |
| RRIRWRPPRLPRPRPRPLDSPRP | 0.0674 |
| RRIRDRPPRLPRPRPRPCGEPRP | 0.488 |
| RRIRFRPPRLPRPRPRPCKNPRP | 0.0492 |
| RRIRVRPPRLPRPRPRPFGYPRP | -0.425 |
| RRIRHRPPRLPRPRPRPKYWPRP | -0.2 |
| RRIRNRPPRLPRPRPRPQQHPRP | -0.111 |
| RRIRFRPPRLPRPRPRPKGEPRP | 0.35 |
| RRIRCRPPRLPRPRPRPPFWPRP | 0.649 |
| RRIRDRPPRLPRPRPRPCHEPRP | -0.0135 |
| RRIRERPPRLPRPRPRPPPRPRP | 0.837 |
| RRIRTRPPRLPRPRPRPTHHPRP | -0.0136 |
| RRIRERPPRLPRPRPRPMICPRP | -0.115 |
| RRIRIRPPRLPRPRPRPMVRPRP | -0.0105 |
| RRIRSRPPRLPRPRPRPDCGPRP | 0.0769 |
| RRIRCRPPRLPRPRPRPSEQPRP | -0.0681 |
| RRIRYRPPRLPRPRPRPAHQPRP | 0.126 |
| RRIRRRPPRLPRPRPRPCLNPRP | -0.4 |

| Sequence | shrunken log2 fold change |
| --- | --- |
| RRIRLRPPRLPRPRPRPGVVPRP | 0.27 |
| RRIRPRPPRLPRPRPRPHMYPRP | -0.316 |
| RRIRLRPPRLPRPRPRPMFTPRP | -0.0806 |
| RRIRKRPPRLPRPRPRPENMPRP | 0.11 |
| RRIRWRPPRLPRPRPRPMFEPRP | -0.0796 |
| RRIRSRPPRLPRPRPRPYHRPRP | -0.507 |
| RRIRYRPPRLPRPRPRPRTVPRP | -0.0278 |
| RRIRMRPPRLPRPRPRPMYWPRP | -0.169 |
| RRIRWRPPRLPRPRPRPHLAPRP | 0.265 |
| RRIRWRPPRLPRPRPRPDERPRP | -0.00133 |
| RRIRQRPPRLPRPRPRPSVDPRP | -0.00902 |
| RRIRYRPPRLPRPRPRPGFPPRP | -6.24e-05 |
| RRIRPRPPRLPRPRPRPIIAPRP | -0.681 |
| RRIRGRPPRLPRPRPRPSYTPRP | 0.307 |
| RRIRARPPRLPRPRPRPLSRPRP | 0.203 |
| RRIRARPPRLPRPRPRPGGIPRP | 0.254 |
| RRIRARPPRLPRPRPRPWACPRP | 0.0376 |
| RRIRIRPPRLPRPRPRPKEQPRP | 0.0307 |
| RRIRQRPPRLPRPRPRPECDPRP | 0.0401 |
| RRIRQRPPRLPRPRPRPQPTPRP | 0.163 |
| RRIRLRPPRLPRPRPRPTQEPRP | 0.0081 |
| RRIRRRPPRLPRPRPRPNLPPRP | 0.0123 |
| RRIRRRPPRLPRPRPRPNFNPRP | -0.0741 |
| RRIRCRPPRLPRPRPRPVHSPRP | -0.107 |
| RRIRIRPPRLPRPRPRPDGYPRP | -0.00133 |

— the supplement of paper PMC9112550, “Optimization of the antimicrobial peptide Bac7 by deep mutational scanning” (BMC Biology, 2022)
